Results: patent publication US20250269025A1 (AVENCELL THERAPEUTICS, published 2025)
No end group written: not given here.

What was measured:
[1] = target: T1, CD123 on CD123 positive AML cells (Oci-AML3, Molm-13, MV4-11, primary AML cells) (human, UniProt P26951 19-378); assay: cell-based or functional assay
[2] = target: T1, CD123 on CD123 positive AML cells …; assay: flow cytometry on Oci-AML3 cells, anti-His-PE detection. Half-maximal binding from a four-parameter fit of gMFI. Unit taken from the concentration axis [M]
Description: Cellular binding of CD123-binding targeting modules (TM) was tested on CD123 positive target cell lines Oci-AML3 and Molm-13: A) SEQ ID No. 5 to Oci-AML3, B) SEQ ID No. 9 to Oci-AML3, C) SEQ ID No. 4 to Molm-13 and D) SEQ ID No. 6 to Molm-13. The affinity of TMs was analyzed by flow cytometry. The TMs were titrated on an AML cell lines and then detected by a mouse anti-His-tag antibody conjugated to phycoerythrin.
Different concentrations of R-TM123 were incubated with cells, washed and quantified. A dose-response curve was obtained when the geometric mean fluorescence (MFI) was plotted against the TM concentration.

[3] = target: T2, human CD123-Fc (human, UniProt P26951 19-305, limits assumed); assay: SPR, Biacore X100, human CD123-Fc on CM5 chip, 1:1 model; KD CD123 (first number of the cell)
T2 construct: Coupled to a CM5 sensor chip; also called soluble recombinant CD123; not shown: Fc part
T2 sequence (looked up): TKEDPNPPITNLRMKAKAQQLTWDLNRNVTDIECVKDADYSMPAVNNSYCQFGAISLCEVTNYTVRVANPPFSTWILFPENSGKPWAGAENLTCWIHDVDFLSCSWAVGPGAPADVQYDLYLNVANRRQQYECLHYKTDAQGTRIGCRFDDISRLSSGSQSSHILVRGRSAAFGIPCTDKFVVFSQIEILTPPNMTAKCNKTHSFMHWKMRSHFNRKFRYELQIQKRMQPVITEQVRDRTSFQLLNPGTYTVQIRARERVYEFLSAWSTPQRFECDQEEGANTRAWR
Description: Binding of different variants of the targeting module according to the invention was analyzed by SPR measurements using human CD123-Fc coupled to a CM5 sensor chip on a Biacore X100 device (FIG. 2). Targeting modules were purified monomer except for the targeting module according to SEQ ID No. 8. […] For data fitting and KD calculation a 1:1 binding model was applied.

[4] = target: T3, La epitope 5B9 (SEQ ID No. 28) fused to human Fc domain (human, also: fused to human Fc domain, order, isotype, linker not given here); assay: SPR, Biacore X100, La epitope 5B9-human Fc on CM5 chip; KD 5B9 (second number of the cell)
T3 construct: Coupled to a CM5 sensor chip; not shown: human Fc domain
T3 chain: KPLPEVTDEY
Description: Furthermore, binding of different variants of the targeting module according to the invention was analyzed using the La epitope 5B9 (SEQ ID No. 28) fused to human Fc domain which was coupled to a CM5 sensor chip on a Biacore X100 device (FIG. 3). The targeting modules were purified monomers. The targeting modules were concentrated between 2.47 to 200 nM and measured in technical duplicates. For data fitting and KD calculation a two-state-reaction binding model was applied.

[5] = target: T1, CD123 on CD123 positive AML cells …; assay: cellular binding assay per table caption, Molm-13 cells
[6] = target: T1, CD123 on CD123 positive AML cells …; assay: cell-based or functional assay; remark: listed apart in the source
[7] = target: T1, CD123 on CD123 positive AML cells …; assay: cell-based or functional assay; remark: listed apart in the source
[8] = target: T1, CD123 on CD123 positive AML cells …; assay: cell-based or functional assay; remark: listed apart in the source
[9] = target: T1, CD123 on CD123 positive AML cells …; assay: cellular binding assay per table caption, Oci-AML3 cells

B1: targeting module according to SEQ ID No. 5 (bispecific antibody)
chain: EVQLQQSGPELVKPGASVKMSCKASGYTFTDYYMKWVKQSHGKSLEWIGDIIPSNGATFYNQKFKGKATLTVDRSSSTAYMHLNSLTSEDSAVYYCTRSHLLRASWFAYWGQGTLVTVSAASGGGGSGGGGSGGGGSDFVMTQSPSSLTVTAGEKVTMSCKSSQSLLNSGNQKNYLTWYLQKPGQPPKLLIYWASTRESGVPDRFTGSGSGTDFTLTISSVQAEDLAVYYCQNDYSYPYTFGGGTKLEIKAAARGDIVMTQSPDSLAVSLGERATINCKSSQSLLNSRTPKNYLAWYQQKPGQPPKLLIYWASTRKSGVPDRFSGSGSGTDFTLTISSLQAEDVAVYYCKQSYNLLTFGGGTKVEIKGGGGSGGGGSGASAAGGGGSGGGGSQVQLVQSGAEVKKPGASVKVSCKASGYTFTHYYIYWVRQAPGQGLEWMGGVNPSNGGTHFNEKFKSRVTMTRDTSISTAYMELSRLRSDDTAVYYCARSEYDYGLGFAYWGQGTLVTVSSGGGGSHHHHHHHH
notes: also called R-TM123; muCD123 + 5B9-VL-VH
[1]
  EC50 of R-TM123 for CD25 expression on CD4+ RevCAR-T, co-culture with MOLM-13, Donor #1: 2.6 pM
  EC50 of R-TM123 for CD25 expression on CD4+ RevCAR-T, co-culture with MOLM-13, Donor #2: 2.2 pM
  EC50 of R-TM123 for CD25 expression on CD4+ RevCAR-T, co-culture with MOLM-13, Donor #3: 2.3 pM
  EC50 of R-TM123 for CD25 expression on CD4+ RevCAR-T, co-culture with MOLM-13, Donor #4: 1.2 pM
  EC50 of R-TM123 for CD25 expression on CD4+ RevCAR-T, co-culture with MOLM-13, Mean: 2.1 pM
  EC50 of R-TM123 for CD25 expression on CD4+ RevCAR-T, co-culture with MV4-11, Donor #1: 8 pM
  EC50 of R-TM123 for CD25 expression on CD4+ RevCAR-T, co-culture with MV4-11, Donor #2: 6.5 pM
  EC50 of R-TM123 for CD25 expression on CD4+ RevCAR-T, co-culture with MV4-11, Donor #3: 10.2 pM
  EC50 of R-TM123 for CD25 expression on CD4+ RevCAR-T, co-culture with MV4-11, Donor #4: 8.9 pM
  EC50 of R-TM123 for CD25 expression on CD4+ RevCAR-T, co-culture with MV4-11, Mean: 8.4 pM
  EC50 of R-TM123 for CD25 expression on CD4+ RevCAR-T, co-culture with OCI-AML3, Donor #1: 2.9 pM
  EC50 of R-TM123 for CD25 expression on CD4+ RevCAR-T, co-culture with OCI-AML3, Donor #2: 3 pM
  EC50 of R-TM123 for CD25 expression on CD4+ RevCAR-T, co-culture with OCI-AML3, Donor #3: 2.3 pM
  EC50 of R-TM123 for CD25 expression on CD4+ RevCAR-T, co-culture with OCI-AML3, Donor #4: 2.4 pM
  EC50 of R-TM123 for CD25 expression on CD4+ RevCAR-T, co-culture with OCI-AML3, Mean: 2.6 pM
  EC50 of R-TM123 for CD25 expression on CD8+ RevCAR-T, co-culture with MOLM-13, Donor #1: 5.2 pM
  EC50 of R-TM123 for CD25 expression on CD8+ RevCAR-T, co-culture with MOLM-13, Donor #2: 4.3 pM
  EC50 of R-TM123 for CD25 expression on CD8+ RevCAR-T, co-culture with MOLM-13, Donor #3: 6 pM
  EC50 of R-TM123 for CD25 expression on CD8+ RevCAR-T, co-culture with MOLM-13, Donor #4: 2.1 pM
  EC50 of R-TM123 for CD25 expression on CD8+ RevCAR-T, co-culture with MOLM-13, Mean: 4.4 pM
  EC50 of R-TM123 for CD25 expression on CD8+ RevCAR-T, co-culture with MV4-11, Donor #1: 6.7 pM
  EC50 of R-TM123 for CD25 expression on CD8+ RevCAR-T, co-culture with MV4-11, Donor #2: 4.3 pM
  EC50 of R-TM123 for CD25 expression on CD8+ RevCAR-T, co-culture with MV4-11, Donor #3: 7.2 pM
  EC50 of R-TM123 for CD25 expression on CD8+ RevCAR-T, co-culture with MV4-11, Donor #4: 5.1 pM
  EC50 of R-TM123 for CD25 expression on CD8+ RevCAR-T, co-culture with MV4-11, Mean: 5.8 pM
  EC50 of R-TM123 for CD25 expression on CD8+ RevCAR-T, co-culture with OCI-AML3, Donor #1: 8.7 pM
  EC50 of R-TM123 for CD25 expression on CD8+ RevCAR-T, co-culture with OCI-AML3, Donor #2: 15.7 pM
  EC50 of R-TM123 for CD25 expression on CD8+ RevCAR-T, co-culture with OCI-AML3, Donor #3: 14.6 pM
  EC50 of R-TM123 for CD25 expression on CD8+ RevCAR-T, co-culture with OCI-AML3, Donor #4: 4.8 pM
  EC50 of R-TM123 for CD25 expression on CD8+ RevCAR-T, co-culture with OCI-AML3, Mean: 11 pM
[2]
  Kd: 2920 pM
[3]
  Kd: 23 pM
[4]
  Kd: 3400 pM
[5]
  EC50: 1.2 pM
[6]
  EC50 of R-TM123 for GM-CSF release by RevCAR-T, co-culture with MOLM-13: 37.7 pM
  EC50 of R-TM123 for Granzyme B release by RevCAR-T, co-culture with MOLM-13: 4.4 pM
  EC50 of R-TM123 for IFN-γ release by RevCAR-T, co-culture with MOLM-13: 19.3 pM
  EC50 of R-TM123 for IL-2 release by RevCAR-T, co-culture with MOLM-13: 63.9 pM
  EC50 of R-TM123 for IL-4 release by RevCAR-T, co-culture with MOLM-13: 54.2 pM
  EC50 of R-TM123 for Perforin release by RevCAR-T, co-culture with MOLM-13: 3.7 pM
  EC50 of R-TM123 for TNF-α release by RevCAR-T, co-culture with MOLM-13: 53.9 pM
[7]
  EC50 of R-TM123 for lysis of primary AML cells AML 1 by RevCAR-T, Donor #2: 3.4 pM
  EC50 of R-TM123 for lysis of primary AML cells AML 1 by RevCAR-T, Donor #3: 2.9 pM
  EC50 of R-TM123 for lysis of primary AML cells AML 1 by RevCAR-T, Donor #4: 1.8 pM
  EC50 of R-TM123 for lysis of primary AML cells AML 1 by RevCAR-T, Mean: 2.7 pM
  EC50 of R-TM123 for lysis of primary AML cells AML 3 by RevCAR-T, Donor #2: 3 pM
  EC50 of R-TM123 for lysis of primary AML cells AML 3 by RevCAR-T, Donor #3: 3.8 pM
  EC50 of R-TM123 for lysis of primary AML cells AML 3 by RevCAR-T, Donor #4: 2.2 pM
  EC50 of R-TM123 for lysis of primary AML cells AML 3 by RevCAR-T, Mean: 3 pM
  EC50 of R-TM123 for lysis of primary AML cells AML 4 by RevCAR-T, Donor #2: 1.7 pM
  EC50 of R-TM123 for lysis of primary AML cells AML 4 by RevCAR-T, Donor #3: 3.1 pM
  EC50 of R-TM123 for lysis of primary AML cells AML 4 by RevCAR-T, Donor #4: 1.8 pM
  EC50 of R-TM123 for lysis of primary AML cells AML 4 by RevCAR-T, Mean: 2.2 pM
  EC50 of R-TM123 for lysis of primary AML cells AML 5 by RevCAR-T, Donor #2: 2.2 pM
  EC50 of R-TM123 for lysis of primary AML cells AML 5 by RevCAR-T, Donor #3: 3.6 pM
  EC50 of R-TM123 for lysis of primary AML cells AML 5 by RevCAR-T, Donor #4: 2.1 pM
  EC50 of R-TM123 for lysis of primary AML cells AML 5 by RevCAR-T, Mean: 2.6 pM
[8]
  EC50 of R-TM123 for RevCAR-T mediated lysis of MOLM-13, Donor #1: 1.3 pM
  EC50 of R-TM123 for RevCAR-T mediated lysis of MOLM-13, Donor #2: 2.2 pM
  EC50 of R-TM123 for RevCAR-T mediated lysis of MOLM-13, Donor #3: 2.6 pM
  EC50 of R-TM123 for RevCAR-T mediated lysis of MOLM-13, Donor #4: 1 pM
  EC50 of R-TM123 for RevCAR-T mediated lysis of MOLM-13, Mean: 1.8 pM
  EC50 of R-TM123 for RevCAR-T mediated lysis of MV4-11, Donor #1: 2.8 pM
  EC50 of R-TM123 for RevCAR-T mediated lysis of MV4-11, Donor #2: 4.2 pM
  EC50 of R-TM123 for RevCAR-T mediated lysis of MV4-11, Donor #3: 3.8 pM
  EC50 of R-TM123 for RevCAR-T mediated lysis of MV4-11, Donor #4: 3.3 pM
  EC50 of R-TM123 for RevCAR-T mediated lysis of MV4-11, Mean: 3.5 pM
  EC50 of R-TM123 for RevCAR-T mediated lysis of OCI-AML3, Donor #1: 8.6 pM
  EC50 of R-TM123 for RevCAR-T mediated lysis of OCI-AML3, Donor #2: 6.7 pM
  EC50 of R-TM123 for RevCAR-T mediated lysis of OCI-AML3, Donor #3: 4.9 pM
  EC50 of R-TM123 for RevCAR-T mediated lysis of OCI-AML3, Donor #4: 2.7 pM
  EC50 of R-TM123 for RevCAR-T mediated lysis of OCI-AML3, Mean: 5.7 pM
[9]
  EC50: 3 pM
